Data taken from patent US20150094271A1 (SAMSUNG ELECTRONICS, published 2015).
No end group written: not given here.

B1: GST-p53LZ2 (leucine zipper variant p53LZ2, inventive, tagged with GST) (designed binder)
chain: RMKQLEDKVGELLFSNYWLELEVARLKKLV
modifications: not fully specified (N-terminus); also: parallel homodimer, GST junction linker letters not given here
notes: not shown: GST carrier (pGEX-4T3 vector) and its junction linker
B2: His6-HDM2NTD (other, human)
chain: HHHHHHMCNTNMSVPTDGAVTTSQIPASEQETLVRPKPLLLKLLKSVGAQKDTYTMKEVLFYLGQYIMTKRLYDEKQQHIVYCSNDLLGDLFGVPSFSVKEHRKIYTMIYRNLVVVNQQESSDSGTSVSEN
notes: range 1-125; Tag placed N-terminally by its name only
B3: His6-HDMXNTD (other, human)
chain: HHHHHHMTSFSTSAQCSTSDSACRISPGQINQVRPKLPLLKILHAAGAQGEMFTVKEVMHYLGQYIMVKQLYDQQEQHMVYCGGDLLGELLGRQSFSVKDPSPLYDMLRKNLVTLATATTDAAQTLALAQDHSMDIPS
notes: range 1-132; Tag placed N-terminally by its name only
B4: HDMXNTD (N-terminal domain of HDMX, amino acid residues 1 to 132 of NP-001191100) (other, human, UniProt O15151 1-132, looked up)
chain: MTSFSTSAQCSTSDSACRISPGQINQVRPKLPLLKILHAAGAQGEMFTVKEVMHYLGQYIMVKQLYDQQEQHMVYCGGDLLGELLGRQSFSVKDPSPLYDMLRKNLVTLATATTDAAQTLALAQDHSMDIPS
notes: range 1-132; also called HDM4
B5: HDM2NTD (N-terminal domain of HDM2, amino acids 1 to 125 of NP-002383) (other, human, UniProt Q00987 1-125, looked up)
chain: MCNTNMSVPTDGAVTTSQIPASEQETLVRPKPLLLKLLKSVGAQKDTYTMKEVLFYLGQYIMTKRLYDEKQQHIVYCSNDLLGDLFGVPSFSVKEHRKIYTMIYRNLVVVNQQESSDSGTSVSEN
notes: range 1-125

Tests used:
full-length HDM2 = molecular target: T1, full-length HDM2 (human, UniProt Q00987 1-491); test: ELISA, full-length HDM2 coated at 20 µg/ml, HRP anti-GST antibody, absorbance at 450 nm
T1 construct: mature
Protocol: (§1) HDM2 or HDMX was diluted to a concentration of 20 μg/ml in a coating buffer (pH 9.6; 0.05M carbonate-bicarbonate buffer, pH 9.6 (Sigma-Aldrich)), applied to 96-well plates (Nunc, Maxisorp) and incubated overnight at 4° C. Then, the plates were treated with 300 μl of 3% skim milk w/PBS-T (room temperature, 3 hrs) to block the binding of other proteins. The 96-well plates were washed with 200 μL of PBS-T before each well was treated with serial dilutions of 0, 50, 100, 200, 400, 800, 1200, 1600, 2400, 3200, 4800, and 6400 nM of GST-WT p53, GST-p53LZ1, GST-p53LZ2, GST, pDIQ, and pMI.
(§2) After one hour of incubation, the plates were washed three times with 300 μL of PBS-T, and incubated at room temperature for 1 hr with 100 μL of an HRP conjugated-anti-GST antibody (Abcam, 1:2000). Thereafter, treatment with TMB substrate (Pierce, 100 μL) for 5 min developed a color. A stop solution (Pierce, 100 μL) was added, followed by reading absorbance at 450 nm on microwell reader (Molecular Device, Model: 340PC384).

[1] = molecular target: B5; test: ELISA, HDM2NTD coated at 20 µg/ml, HRP anti-GST antibody, absorbance at 450 nm
Protocol: as §1, §2

[2] = molecular target: B4; test: ELISA, HDMXNTD coated at 20 µg/ml, HRP anti-GST antibody, absorbance at 450 nm
Protocol: as §1, §2

GST [3] = molecular target: T2, GST (UniProt P08515 1-218 = GST); test: GST pull-down on glutathione resin, 12% SDS-PAGE of the eluate
T2 construct: Negative control in the pull-down; also called glutathione S-transferase tag alone (control)

[4] = molecular target: B5; test: ITC, 0.5 mM p53LZ2 injected into 0.03 mM HDM2NTD, PBS pH 7.4, 18 °C
Protocol: Meanwhile, the binding of p53LZ2 to HDM2 and HDMX was evaluated by ITC (isothermal titration calorimetry).

[5] = molecular target: B4; test: ITC (FIG. 6)
[6] = molecular target: B4; test: ITC, p53LZ2 with HDMXNTD
GST [7] = molecular target: T2, GST; test: ELISA, HDMXNTD coated at 20 µg/ml, HRP anti-GST antibody, absorbance at 450 nm
Protocol: as §1, §2

GST [8] = molecular target: T2, GST; test: ELISA, HDM2NTD coated at 20 µg/ml, HRP anti-GST antibody, absorbance at 450 nm
Protocol: as §1, §2

T2 sequence (P08515 whole entry): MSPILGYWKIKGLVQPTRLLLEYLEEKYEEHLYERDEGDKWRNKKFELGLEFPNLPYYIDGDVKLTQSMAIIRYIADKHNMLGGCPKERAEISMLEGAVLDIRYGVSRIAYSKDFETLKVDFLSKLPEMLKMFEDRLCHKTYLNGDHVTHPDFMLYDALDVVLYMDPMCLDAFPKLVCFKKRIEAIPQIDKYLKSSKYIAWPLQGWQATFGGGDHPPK

In the case of B1, the “EC50 (read off the curve)” value (full-length HDM2) is reported as ~300 nM, the “EC50 (read off the curve)” value [1] is reported as ~200 nM and the “EC50 (read off the curve)” value [2] is reported as ~200 nM.

B2: no binding (GST [3]).

RMKQLEDKVGELLFSNYWLELEVARLKKLV (designed binder) [leucine zipper variant p53LZ2] was tested, and the “-TΔS” value [4] was 1.48 kcal/mol, the Kd [4] was 17.8 nM and the N [4] was 0.65. For the same binder, the ΔH [4] was -11.8 kcal/mol, the Kd [5] was ~80 nM and the “-TΔS” value [6] was 1.16 kcal/mol. The N [6] was 0.65 and the ΔH [6] was -9.66 kcal/mol.

B3: no binding (GST [3]).

B4: no binding (tested: 6400 nM) (GST [7]).

B5: no binding (tested: 6400 nM) (GST [8]).
